A short description of this data set: soluble on expression in E. coli; label from the status in PepcDB or PDB records.
As for “MSSQSIDDKFMSITQMKNLIHYVKKNDALSHLCIYILIITGSRFKPVQHLRYEDLNFKKSCIHLNDTKNKYSKRNVKVRIKDLEYIQSVINKHPINQNGYIFHNFINFISYSAINDVLVRFCLKYKYDKYTLKSLRHTHCSYLLAKGISIQYISKRLGHADIHTTLKIYSHLIKEFEDSENSLIEKNLNDLFSDLEHHHHHH”, the “soluble on expression in E. coli” value was “not soluble”.
As to “GSKVVKFSYMWTINNFSFCREEMGEVIKSSTFSSGANDKLKWCLRVNPKGLDEESKDYLSLYLLLVSCPKSEVRAKFKFSILNAKGEETKAMESQRAYRFVQGKDWGFKKFIRRGFLLDEANGLLPDDKLTLFCEVSVVQDSVNISGQNTMNMVKVPECRLADELGGLWENSRFTDCCLCVAGQEFQAHKAILAARSPVFSAMFEHEMEESKKNRVEINDVEPEVFKEMMCFIYTGKAPNLDKMADDLLAAADKYALERLKVMCEDALCSNLSVENAAEILILADLHSADQLKTQAVDFINYHATDVLETSG”, the “soluble on expression in E. coli” value is recorded as “soluble”.
For “MAEEQARHVKNGLECIRALKAEPIGSLAIEEAMAAWSEISDNPGQERATCREEKAGSSGLSKPCLSAIGSTEGGAPRIRGQGPGESDDDAETLGIPPRNLQASSTGLQCHYVYDHSGEAVKGIQDADSIMVQSGLDGDSTLSGGDNESENSDVDIGEPDTEGYAITDRGSAPISMGFRASDVETAEGGEIHELLRLQSRGNNFPKLGKTLNVPPPPDPGRASTSGTPIKKGTDARLASFGTEIASSLTGGATQCARKSPSEPSGPGAPAGNVPECVSNAALIQEWTPESGTTISPRSQNNEEGGDHYDDELFSDVQDIKTALAKIHEDNQKIISKLESLLLLKGEVESIKKQINRQNISISTLEGHLSSIMIAIPGLGKDPNDPTADVEINPDLKPIIGRDSGRALAEVLKKPVASRQLQGMTNGRTSSRGQLLKEFQLKPIGKKMSSAVGFVPDTGPASRSVIRSIIKSSRLEEDRKRYLMTLLDDIKGANDLAKFHQMLVKIIMK” the value was “soluble”; for “RGKDITVWFQRLLDRMTDFFSSLSGRRKVCSKPRFRVRRTTNPAAKKSGTDPKIRETKTSIDEILDKIRISGYASLTAEEKRHLFDQSKRL”, “not soluble”; for “EVQLVQSGAEVKKPGSSVKVSCKASGGTFSNYAINWVRQAPGQGLEWMGGIIPIFNIAHYAQRFQGRVSITADESTSTAYMELSSLRSEDTAVFYCASPYPNDYNDYAPEEGMSWYFDLWGRGTLVTVSPASTKGPSVFPLAPSSKSTSGGTAALGCLVKDYFPEPVTVSWNSGALTSGVHTFPAVLQSSGLYSLSSVVTVPSSSLGTQTYICNVNHKPSNTKVDKKVEPK”, “soluble”.
For “MKVIFNADDFGLTQGVNQGIVKAHLDGVVKSTTLMVGMPAEQHAVQLAKQLPDLKIGLHLRFTAGRPLTGERNLTDEHGVFTAYRDFWQRRDYQPEAIYHEAIAQVEHFLKLGLTLSHLDSHHHAHTHPQLAPIIYEVAKKYHVPLRDIGMAGEEAFGCRYHFTDFFYDQRLGIDPLMKHLLELKERFDLVEVMCHPAFVDPLLEKCSGYAKQREEELHILTSAQLIQLLVAHDIEITDYSALISAPLHSCV” the value was “not soluble”.
“MQKSDEVTEKFKRYCNQLEKYGQTENVHSPVMAMLRRKGRKQLIEIMKRDGDCTSSINKLWIVGYYHPFQFFIRDKEKNMAIAVLLTMFCGELQEMLSLPDDKYPALWNMYIGDFHRYMPDEEIQKCLAVGYYSRAIDLDPNQGRAFHVLAGLRADLNVAQKLRLMILGQLADAPYKKGTELLEYLKFPQKESTDKLMVDFVIWALNEKSKRMDYQMTGIKIVNEFKAEIEQKLEFDWSLIMSTCRLASKLAMKKFGFQQFYNCFDTISTLYITIYSRTISSKCLLAEAISWISDSAEILGHLDEQKNEPHFQKLSVFAKTKWNELNDLVMNHINSVFTSMSLTINPSISMTSFLLNGPISEPNVEFLSQLINYLVSVEFPPMEIIHDREESGPLLRRINQSEQKRLDIQIKTQNDEVNREDWRPVYVLMDYDVIVDKIRIALKIWDIDDFICILPSTVLDELDYQKTKNRAVRPVIRALMELQAEGKIVLKKCDNERSCAEQLVQSARRSAEDHKHIVAFLCKNPSEQKEMEGVTFYDIDQFYMKYLE”: the “soluble on expression in E. coli” value is “not soluble”.
The entry for “GSHMSEWKARRFWASVGIHKEEGGWAVLLDERPLRTPGKQPLRLPTEALALAIAEEWQAVQEVIDPNAMPLTRSANSAIEKVAPQFDAVAAMLGDYGGTDLLSYRADAPEALVRAQAEGWDPLIDWAATELRAPLRITHGVIPVPQDPVVLLKLRAEVASLDPFGLTALHDLVTLPGSLILGLAVIRGRIDAPTAHALSRIDEEFQAERWGRDEEAEAQAASRLAAMRDSERFWHLTRG” is “soluble”; for “NKNFTWTSNFNLTYQRALVDKLPEGKDIQYGDGEMYLHREGESMYTFYLPEWKGVNPETGLGEFWLDPEDHSKGVVNDYSEAGKGIVGKALPDVIGGFSNTFTYKDFDLSFLITYQFGGDMFDYPGYFSHHDGVRIGSMNLSEDVAGNYWKNPGDKVDNPMPIYANPYRWDRFSSRTIKSTDNIRLREMTVGYTLPVLKKHISNFRIYFRANNLAMLWSKTKNIDPDVAINGYRQADTPALRSCVFGINIKL” it is “not soluble”.
For “MGSDKIHHHHHHMTPRELTCDETLAEMARVLTVEAAALTQMASEVGDPQLKAVEILEAMEGRVIVSGVGKSGHIGNKIAATLASTGTPAQFVHATEASHGDLGMVTPRDVCLVISNSGETSELADIVTYSRRFAIPLIAITRKADSTLATQADVVLLLPDAPEACGIGMAPTTSTTATLAMGDALAVALMKRRGFEREDFKVFHPGGKLGAQLMLVDGLMHTGEALPLVAPETPMTEALLIMTAKGFGLAGLVEGGRLTGIITDGDLRRNMDGLMARSAGEVATRGPKVIRRGSLASEALHDMNSRKISALFVLDNEDRVAGLLHIHDCLRAGLA” the value was “not soluble”; for “TCCHGHGHGHDHGHRHAPRPAVAAIGTLAGNAELRWSDLRIEAMDCPTEERLIRDALGRQPAVESLEFNLMQRLLRVQHRFDSVEPLQKLIAGLGMQAVPLDAGENTDGPSQAPA”, “not soluble”.
“MGSDKIHHHHHHDSDIDPVYVLSGDSMELMGGPNEVILTPDNPQALALTVYWSGDGRLALSDTLLQAPVNVAEITIQFSKDEHFTAPLNIAVDKNIHSRQFLCEELNSLLDRLGYEANEKAPLWIRMRSALAANIAPEYSNVMEVLVQSYRIELVLAQVLDKDWKNTSMTLASPAEDGIYKGFMGVNGWENWWLREANNVMWGNLGEEGKTFYASSEDSHWNFWFPNPSGCYYTTVNTVEGWWSALHVASLSVSGDVTGEMAYNKQSNQWTLPVNLATQSTLTISVSGKGSLYNRETTDIGPAIEQTVAFGGNSQNLLFGESADNISVTMPAGENLLVLDLSNPLQFTIGIGEDVPQPEVSQYLYFSGITNWEGFDDYLTLYDEAGLCYGGAHWIDSEWGYRAYTEQAWEPAYNAADGSTDLSGTLILAESKDNIPAPAQGLYVMDFNMKSLTYELTQVQTVTFTGLNDNWSESPMTQSAENPEIFTAEFIKEKKSPWGVKVLINNNWNLFFGGGSGILHLKHSESSAGFDGDDELEIGKTYVLTVDLGHQTYSYSLK”: the “soluble on expression in E. coli” value was “not soluble”.
The entry for “GPGSMPADEAQAPTQTEVYDRLKWNGWGVEDVQMQIDDENPLWVRHVDGKPIKNLLEFLYQEISGGVGPKEIPPLSPSIPLEKALAKLNKANINEAFMKDISAVLEKSQIRPDGKSRLCHIAGKNYRDLWRVRKGMVEHAPDCILLPNSHKDCVEIMRLAHKHNVVVIPFGGGTNVTGGVEADPFERARMIISVDMRRMNRMISIDRESRLATFETGVLGPDLDAQLFRHGFMLGHDPDSYIYSTLGGWIGARGSGAMSNQYGDIEDMVVAVKVATPTGIIETPTTSRTCGVDLNGLFIGSEGSFGIITEATIKLETIPETKLYEGYLFPTFEAGFSAFYTCTAKGIHPCTMRLYDEDDFRMSMAMSTTKHSFFQRLVSMGVKSFLERYRGWNLRRISLVIVGFEGTPDRVKFQRSETAAVFKQYGGVGVGRSAGATWQDKKYDLPYIRDFALSLSHWADVFETSVLYSQAIPCWRAVKAAVRQVWKEHGHRGWIGCHTAHQYKYGCCLYFTFASAQKDDMDMKIFLAIKKRATEAMLAHTGNLTHHHGIGYEHVPWMSRYMGPDALDLLFAVKQKVDPKNICNPGKLLPSPPRENESAAALKARQQRELMFDKMGVPGAVASHI” is “not soluble”.
